# From US20190218304A1, “POTENTIATING THE EFFECT OF ATP RELEASE” (INNATE PHARMA, priority 2017, published 2019)
# “Also recorded” adds a separate entry of the source.
# B1: I-394: anti-CD39 antibody, VH SEQ ID NO: 3, VL SEQ ID NO: 4; heavy and light chains SEQ ID NOS: 37 and 38 (antibody)
# heavy: EVQLQQSGPELVKPGASVKMSCKASGYTFTDYNMHWVKQSHGRTLEWIGYIVPLNGGSTFNQKFKGRATLTVNTSSRTAYMELRSLTSEDSAAYYCARGGTRFAYWGQGTLVTVSAASTKGPSVFPLAPSSKSTSGGTAALGCLVKDYFPEPVTVSWNSGALTSGVHTFPAVLQSSGLYSLSSVVTVPSSSLGTQTYICNVNHKPSNTKVDKRVEPKSCDKTHTCPPCPAPEAEGAPSVFLFPPKPKDTLMISRTPEVTCVVVDVSHEDPEVKFNWYVDGVEVHNAKTKPREEQYNSTYRVVSVLTVLHQDWLNGKEYKCKVSNKALPSSIEKTISKAKGQPREPQVYTLPPSREEMTKNQVSLTCLVKGFYPSDIAVEWESNGQPENNYKTTPPVLDSDGSFFLYSKLTVDKSRWQQGNVFSCSVMHEALHNHYTQKSLSLSPGK
# light: DIVLTQSPASLAVSLGQRATISCRASESVDNFGVSFMYWFQQKPGQPPNLLIYGASNQGSGVPARFRGSGSGTDFSLNIHPMEADDTAMYFCQQTKEVPYTFGGGTKLEIKRTVAAPSVFIFPPSDEQLKSGTASVVCLLNNFYPREAKVQWKVDNALQSGNSQESVTEQDSKDSTYSLSSTLTLSKADYEKHKVYACEVTHQGLSSPVTKSFNRGEC
# modifications: Chimeric homo sapiens mus musculus
# How the values were obtained:
# [1] = tested on: MCA205 mouse tumor cells (sarcoma); assay: In vivo combination treatment, MCA205 tumors in human CD39 KI mice; details: second experimental series: oxaliplatin injected twice, one week apart, one day after I-394
# Procedure: 1×10^6 MCA205 mouse tumor cells (sarcoma) were subcutaneously engrafted in the right flank of mice genetically modified to express human CD39 (CD39KI mice). […] Tumors were measured twice a week with a caliper (L: length and w: width) and tumor volume was calculated with the formula (L×w2)/2. Mice were sacrificed when tumor volume was above 1800 mm^3 or when tumors were highly necrosed. The human CD39 KI mice were engrafted with MCA205 tumor cells at day 0.
# In a first experimental series, mice were treated at day 5 post tumor cell engraftment with either control (1 group) PBS, or oxaliplatin chemotherapy (2 groups). In parallel, one group of mice treated with oxaliplatin was injected twice a week with anti-CD39 antibody, with the anti-CD39 antibody treatment starting just one day before oxaliplatin treatment (at day 4).
# [2] = tested on: allogenic CD4 T cells; assay: Mixed lymphocytes reaction (MLR) of ATP-activated DC with allogenic CD4 T cells; format: cell-based, human; details: ATP-activated MoDC, 1 MoDC/4 T cells, 5 days
# Procedure: T cells activation and proliferation were analyzed through CD25 expression and Cell Trace Violet dilution by flow cytometry.
# Briefly, human monocytes were purified from human healthy blood and differentiated into MoDC in presence of GM-CSF and IL-4 during 6 days. Then MoDC were activated in presence of ATP (Sigma, 0.25-1 mM) during 24 hours and DC activation were assessed by analyzing CD80, CD83 and HLA-DR expression by flow cytometry. […] LPS (Invivogen, 10 ng/ml) was used as positive control. To assess resulting effect of ATP-mediated DC activation on CD4 T cells activation, ATP-activated DC were washed and then incubated with allogenic CD4 T cells (ratio 1 MoDC/4 T cells) for a mixed lymphocytes reaction (MLR) during 5 days. T cells activation and proliferation were analyzed through CD25 expression and Cell Trace Violet dilution by flow cytometry (FIG. 8).
# [3] = molecular target: T1, Human CD39-L4, also known as NTPDase5 or ENTPD5 (Homo sapiens, UniProt O75356); assay: ELISA titration on CD39-L4; format: binding; details: coated recombinant protein, OD=450
# T1 sequence (O75356 25-428): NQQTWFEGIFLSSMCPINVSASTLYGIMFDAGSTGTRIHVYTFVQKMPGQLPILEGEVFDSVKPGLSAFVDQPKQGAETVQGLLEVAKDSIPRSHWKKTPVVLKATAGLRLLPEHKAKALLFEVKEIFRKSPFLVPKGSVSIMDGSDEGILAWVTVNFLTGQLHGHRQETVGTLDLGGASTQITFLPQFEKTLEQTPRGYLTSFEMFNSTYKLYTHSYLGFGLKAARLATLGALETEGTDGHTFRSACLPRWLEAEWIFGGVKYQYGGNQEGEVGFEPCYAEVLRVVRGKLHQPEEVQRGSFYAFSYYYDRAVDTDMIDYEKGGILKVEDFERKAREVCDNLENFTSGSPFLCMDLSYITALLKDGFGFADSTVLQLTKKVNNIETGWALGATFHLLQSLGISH
# Procedure: Wells were washed in TBS Tween 20, and further saturated 2H at RT in TBS Blocking buffer. Dose range concentration of primary antibody was incubated in TBS blocking buffer for 2 h at RT. Wells were washed in TBS Tween 20. […] Optical density was measured on Enspire™ at OD=450.
# [4] = tested on: CHO cells expressing cynomolgus (macaca fascicularis) CD39; assay: Antibody titration by flow cytometry on CHO-cyCD39; format: binding
# Procedure: Cells were incubated with various concentration of unlabeled anti-CD39 antibody from 30 μg/ml to 5×10^−4 μg/ml, for 30 minutes at 4° C. After washes, cells were incubated with Goat anti-mouse H+L labeled secondary antibody for 30 min at 4° C.
molecule,measurement,setting,value
B1,effect on tumor growth / tumor volume and mice survival,[1],only marginal effect
same,"T cell proliferation and activation (CD25 expression, Cell Trace Violet dilution) in MLR",[2],higher T cell proliferation and activation
same,binding to CD39-L4 in ELISA,[3],not to any of the human isoforms
same,binding to cells expressing cynomolgus CD39 (CHO-cyCD39),[4],bound; also recorded: binds
